According to patent publication US20100316665A1:

T1: OmpC porin purified from Salmonella typhi (Salmonella enterica subsp. enterica serovar Typhi), A0A0H3
T1 chain: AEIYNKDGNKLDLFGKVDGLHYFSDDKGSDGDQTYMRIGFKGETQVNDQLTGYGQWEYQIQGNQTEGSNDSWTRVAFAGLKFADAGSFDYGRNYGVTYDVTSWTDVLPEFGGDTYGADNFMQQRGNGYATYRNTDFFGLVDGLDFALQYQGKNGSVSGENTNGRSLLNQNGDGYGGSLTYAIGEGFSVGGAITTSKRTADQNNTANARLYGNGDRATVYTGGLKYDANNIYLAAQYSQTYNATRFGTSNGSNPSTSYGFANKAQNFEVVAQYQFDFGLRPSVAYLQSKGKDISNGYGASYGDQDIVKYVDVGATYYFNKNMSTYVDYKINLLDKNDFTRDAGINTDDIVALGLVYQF

T2: OmpF porin purified from Salmonella typhi (Salmonella enterica subsp. enterica serovar Typhi), Q56113
T2 chain: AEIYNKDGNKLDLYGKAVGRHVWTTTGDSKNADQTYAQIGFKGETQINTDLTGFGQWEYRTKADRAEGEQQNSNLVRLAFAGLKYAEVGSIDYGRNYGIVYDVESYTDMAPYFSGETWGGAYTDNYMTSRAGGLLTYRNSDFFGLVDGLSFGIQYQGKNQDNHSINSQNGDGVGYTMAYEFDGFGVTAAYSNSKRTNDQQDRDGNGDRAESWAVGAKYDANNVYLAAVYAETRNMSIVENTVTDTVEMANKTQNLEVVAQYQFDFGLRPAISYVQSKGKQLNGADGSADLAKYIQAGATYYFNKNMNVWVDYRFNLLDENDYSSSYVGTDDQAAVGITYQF


Tests used:
[1] = target: T1, OmpC porin purified from Salmonella …; test: phage display panning on OmpC, frequency of occurrence among sequenced binders
[2] = target: T2, OmpF porin purified from Salmonella …; test: phage display panning on OmpF, frequency of occurrence among sequenced binders

Frequency (fraction of sequenced phage) [1]	Frequency (fraction of sequenced phage) [2]	Binder
0.125	–	SLSLIQT (modifications not checked) [affinity peptide SLSLIQT]
–	0.4	FHEFWPT (modifications not checked) [affinity peptide FHEFWPT]
0.125	–	TATYLLD (modifications not checked) [affinity peptide TATYLLD]

Further lines, the binder ahead of its results:

Binder	Frequency (fraction of sequenced phage) [1]	Frequency (fraction of sequenced phage) [2]
EAKGLIR (modifications not checked) [affinity peptide EAKGLIR]	0.75	–
FHENWPS (modifications not checked) [affinity peptide FHENWPS]	–	0.6
